# Assays:
# Experiment in all cases: Kd (EC50 corrected by depletion factor)
# MRPL17 = MRPL17 (UniProt Q9NRX2)
# Outline: (§1)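 Kd was calculated as EC50, taken from a four-parameter log-logistic fit, multiplied by a protein-dependent depletion factor. The assay used HEK293-FT lysate (2.5 mg protein/well) pre-incubated for 1 h at 4°C with free RNA oligos (0 nM to 30 μM), then incubated for 30 min at 4°C with the matching oligos bound through a 5′-amino-C6 linker to NHS-Sepharose beads. Bound proteins were measured by label-free LC-MS/MS and normalised to the control.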
# DHX30 = target: T1, DHX30 (UniProt Q7L2E3)
# T1 sequence: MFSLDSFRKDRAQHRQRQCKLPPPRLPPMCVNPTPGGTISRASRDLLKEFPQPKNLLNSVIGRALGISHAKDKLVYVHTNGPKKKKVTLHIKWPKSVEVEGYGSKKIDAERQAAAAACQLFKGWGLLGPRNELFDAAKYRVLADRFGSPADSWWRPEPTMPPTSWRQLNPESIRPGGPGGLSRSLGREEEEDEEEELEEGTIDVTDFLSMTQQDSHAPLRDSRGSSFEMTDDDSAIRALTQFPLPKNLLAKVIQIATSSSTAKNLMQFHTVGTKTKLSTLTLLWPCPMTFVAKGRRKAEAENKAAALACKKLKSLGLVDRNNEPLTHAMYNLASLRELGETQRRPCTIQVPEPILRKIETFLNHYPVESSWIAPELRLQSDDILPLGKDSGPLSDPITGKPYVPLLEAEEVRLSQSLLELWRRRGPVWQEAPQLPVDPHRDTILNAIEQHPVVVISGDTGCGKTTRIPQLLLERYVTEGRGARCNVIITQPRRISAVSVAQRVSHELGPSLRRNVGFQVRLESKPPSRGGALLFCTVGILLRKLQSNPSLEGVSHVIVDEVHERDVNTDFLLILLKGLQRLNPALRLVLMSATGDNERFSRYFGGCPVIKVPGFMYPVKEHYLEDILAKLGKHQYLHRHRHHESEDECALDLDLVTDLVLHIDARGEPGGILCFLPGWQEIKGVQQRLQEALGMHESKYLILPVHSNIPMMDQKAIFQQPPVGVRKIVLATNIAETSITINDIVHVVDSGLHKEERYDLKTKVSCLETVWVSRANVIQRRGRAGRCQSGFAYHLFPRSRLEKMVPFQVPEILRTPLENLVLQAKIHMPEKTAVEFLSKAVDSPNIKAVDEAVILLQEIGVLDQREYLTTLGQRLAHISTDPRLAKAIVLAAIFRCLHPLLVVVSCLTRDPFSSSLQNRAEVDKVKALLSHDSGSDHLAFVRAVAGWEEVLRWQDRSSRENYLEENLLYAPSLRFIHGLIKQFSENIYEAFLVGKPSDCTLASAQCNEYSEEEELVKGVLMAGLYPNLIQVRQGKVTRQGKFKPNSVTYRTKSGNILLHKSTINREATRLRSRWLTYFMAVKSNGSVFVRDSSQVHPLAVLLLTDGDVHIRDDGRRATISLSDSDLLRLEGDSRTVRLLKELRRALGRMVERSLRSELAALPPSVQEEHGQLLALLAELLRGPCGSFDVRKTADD
# Outline: as §1
# AASS = target: T2, AASS (UniProt Q9UDR5)
# T2 sequence: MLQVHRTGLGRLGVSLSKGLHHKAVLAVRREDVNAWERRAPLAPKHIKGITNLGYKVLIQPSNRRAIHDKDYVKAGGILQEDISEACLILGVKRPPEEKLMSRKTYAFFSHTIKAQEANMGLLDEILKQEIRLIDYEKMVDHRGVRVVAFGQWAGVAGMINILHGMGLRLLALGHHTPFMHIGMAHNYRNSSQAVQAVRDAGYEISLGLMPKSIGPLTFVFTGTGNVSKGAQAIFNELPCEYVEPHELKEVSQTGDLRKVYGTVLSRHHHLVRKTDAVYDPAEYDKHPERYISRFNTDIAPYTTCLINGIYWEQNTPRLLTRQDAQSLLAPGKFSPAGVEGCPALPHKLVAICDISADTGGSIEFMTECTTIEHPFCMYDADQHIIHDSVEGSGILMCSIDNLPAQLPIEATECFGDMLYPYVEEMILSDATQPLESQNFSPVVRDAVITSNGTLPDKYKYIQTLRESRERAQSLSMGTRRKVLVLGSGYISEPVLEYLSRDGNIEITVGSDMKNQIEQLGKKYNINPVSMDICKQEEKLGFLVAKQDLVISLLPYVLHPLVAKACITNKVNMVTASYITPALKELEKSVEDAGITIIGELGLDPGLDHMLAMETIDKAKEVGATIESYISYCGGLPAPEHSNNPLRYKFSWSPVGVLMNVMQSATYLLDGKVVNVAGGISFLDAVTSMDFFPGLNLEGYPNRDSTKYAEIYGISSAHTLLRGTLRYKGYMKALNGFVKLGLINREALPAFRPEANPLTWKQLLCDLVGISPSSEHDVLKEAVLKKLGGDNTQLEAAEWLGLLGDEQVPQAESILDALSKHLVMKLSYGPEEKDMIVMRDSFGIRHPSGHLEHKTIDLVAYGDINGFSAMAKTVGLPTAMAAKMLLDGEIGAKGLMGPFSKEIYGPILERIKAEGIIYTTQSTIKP
# Outline: as §1
# ZCRB1 = target: T3, ZCRB1 (UniProt Q8TBF4)
# T3 sequence: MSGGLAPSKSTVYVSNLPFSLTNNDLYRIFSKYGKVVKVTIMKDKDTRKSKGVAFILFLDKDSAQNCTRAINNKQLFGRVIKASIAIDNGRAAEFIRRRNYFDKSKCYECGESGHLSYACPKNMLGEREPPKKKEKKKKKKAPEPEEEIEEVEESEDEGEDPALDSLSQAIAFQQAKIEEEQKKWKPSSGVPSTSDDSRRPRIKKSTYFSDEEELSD
# Outline: as §1
sequence,measurement,setting,value
CUGUCCU,Kd,MRPL17,20.4 nM
same,Kd,DHX30,58.7 nM
AAUAAA,Kd,AASS,1220 nM
UAUUUAU,Kd,ZCRB1,3450 nM

# From the supplement of paper PMC6379048
